B1: NVS49-L2A1 (antibody, V domains shown)
VH: HVQLVQSGGGVKKIGAAVRISCEVTGYKFMDQLINWVRQAPGQGLEWMGWMNPTYGQVNYSWRFEGRVTMTRDMDTETAFMELRGLRVDDTAVYYCARGPSGENYPFHYWGQGVRVVVSS
VL: ASALTQPASMSASPGQSVTISCSGTRHIISAWFQQYPGKPPKLIIFDDDKRPSGVPSRFSASRPGDTASLTISNVQPEDEATYICNTYEFFGGGTRLTVL
B2: L2A1_H58NS (antibody, V domains shown)
VH: HVQLVQSGGGVKKIGAAVRISCEVTGYKFMDQLINWVRQAPGQGLEWMGWMNPTYGQVSYSWRFEGRVTMTRDMDTETAFMELRGLRVDDTAVYYCARGPSGENYPFHYWGQGVRVVVSS
VL: ASALTQPASMSASPGQSVTISCSGTRHIISAWFQQYPGKPPKLIIFDDDKRPSGVPSRFSASRPGDTASLTISNVQPEDEATYICNTYEFFGGGTRLTVL
B3: L2A1_H58ND (antibody, V domains shown)
VH: HVQLVQSGGGVKKIGAAVRISCEVTGYKFMDQLINWVRQAPGQGLEWMGWMNPTYGQVDYSWRFEGRVTMTRDMDTETAFMELRGLRVDDTAVYYCARGPSGENYPFHYWGQGVRVVVSS
VL: ASALTQPASMSASPGQSVTISCSGTRHIISAWFQQYPGKPPKLIIFDDDKRPSGVPSRFSASRPGDTASLTISNVQPEDEATYICNTYEFFGGGTRLTVL
B4: L2A1_H60SA (antibody, V domains shown)
VH: HVQLVQSGGGVKKIGAAVRISCEVTGYKFMDQLINWVRQAPGQGLEWMGWMNPTYGQVNYAWRFEGRVTMTRDMDTETAFMELRGLRVDDTAVYYCARGPSGENYPFHYWGQGVRVVVSS
VL: ASALTQPASMSASPGQSVTISCSGTRHIISAWFQQYPGKPPKLIIFDDDKRPSGVPSRFSASRPGDTASLTISNVQPEDEATYICNTYEFFGGGTRLTVL
B5: L2A1_H60SN (antibody, V domains shown)
VH: HVQLVQSGGGVKKIGAAVRISCEVTGYKFMDQLINWVRQAPGQGLEWMGWMNPTYGQVNYNWRFEGRVTMTRDMDTETAFMELRGLRVDDTAVYYCARGPSGENYPFHYWGQGVRVVVSS
VL: ASALTQPASMSASPGQSVTISCSGTRHIISAWFQQYPGKPPKLIIFDDDKRPSGVPSRFSASRPGDTASLTISNVQPEDEATYICNTYEFFGGGTRLTVL
B6: L2A1_H58NA (antibody, V domains shown)
VH: HVQLVQSGGGVKKIGAAVRISCEVTGYKFMDQLINWVRQAPGQGLEWMGWMNPTYGQVAYSWRFEGRVTMTRDMDTETAFMELRGLRVDDTAVYYCARGPSGENYPFHYWGQGVRVVVSS
VL: ASALTQPASMSASPGQSVTISCSGTRHIISAWFQQYPGKPPKLIIFDDDKRPSGVPSRFSASRPGDTASLTISNVQPEDEATYICNTYEFFGGGTRLTVL
B7: L2A1_H58NQ (antibody, V domains shown)
VH: HVQLVQSGGGVKKIGAAVRISCEVTGYKFMDQLINWVRQAPGQGLEWMGWMNPTYGQVQYSWRFEGRVTMTRDMDTETAFMELRGLRVDDTAVYYCARGPSGENYPFHYWGQGVRVVVSS
VL: ASALTQPASMSASPGQSVTISCSGTRHIISAWFQQYPGKPPKLIIFDDDKRPSGVPSRFSASRPGDTASLTISNVQPEDEATYICNTYEFFGGGTRLTVL

Columns and labels:
Assay in all cases: cell-based or functional assay
[1] = molecular target: HIV-1 envelope (Env) of virus CAP45.2.00.G3 (HIV-1)
[2] = molecular target: HIV-1 envelope (Env) of virus AC10.0.29 (HIV-1)
[3] = molecular target: HIV-1 envelope (Env) of virus CNE20 (HIV-1)
[4] = molecular target: HIV-1 envelope (Env) of virus DU172.17 (HIV-1)
[5] = molecular target: HIV-1 envelope (Env) of virus WITO4160.33 (HIV-1)
[6] = molecular target: HIV-1 envelope (Env) of virus REJO4541.67 (HIV-1)

Binder | IC50 of viral neutralization (Env.IMC.LucR virus, TZM-BL reporter cells) [1] | IC50 of viral neutralization (Env.IMC.LucR virus, TZM-BL reporter cells) [2] | IC50 of viral neutralization (Env.IMC.LucR virus, TZM-BL reporter cells) [3] | IC50 of viral neutralization (Env.IMC.LucR virus, TZM-BL reporter cells) [4] | IC50 of viral neutralization (Env.IMC.LucR virus, TZM-BL reporter cells) [5] | IC50 of viral neutralization (Env.IMC.LucR virus, TZM-BL reporter cells) [6]
B1 | 0.069 µg/mL | 0.306 µg/mL | 0.05 µg/mL | 0.128 µg/mL | 0.213 µg/mL | 0.022 µg/mL
B2 | 0.04 µg/mL | 0.091 µg/mL | > 50 µg/mL | 0.102 µg/mL | 0.182 µg/mL | 0.206 µg/mL
B3 | – | > 50 µg/mL | > 50 µg/mL | 20.9 µg/mL | 0.65 µg/mL | 0.212 µg/mL
B4 | 0.039 µg/mL | 0.072 µg/mL | 0.17 µg/mL | 0.056 µg/mL | 0.148 µg/mL | 0.105 µg/mL
B5 | 0.032 µg/mL | 0.087 µg/mL | 0.317 µg/mL | 0.044 µg/mL | 0.212 µg/mL | 0.121 µg/mL
B6 | 0.05 µg/mL | 0.098 µg/mL | > 50 µg/mL | 0.218 µg/mL | 0.259 µg/mL | 0.104 µg/mL
B7 | – | > 50 µg/mL | > 50 µg/mL | 2.27 µg/mL | 0.222 µg/mL | 0.025 µg/mL
